Assay results from US20050221381A1, “Method for isolating ligands” (priority 2002, published 2005).
Entries after “also recorded” stand apart in the source; their conditions may differ. Read-outs that look alike come from different tables or passages of the source.

Assays:
[1] = biological target: T1, soluble DRB1*0404 molecules (Homo sapiens, UniProt P01903+P01911, A100R/A169T/F76Y/I96L/K127E/L162R/M171V/N62H/P40V/Q125Y/R42H/S133A/S149N/S66Y/V209L/W38E); experiment: Peptide binding assay, SDS-stability assay
T1 construct: Soluble HLA class I A*0201 and HLA class II DRA1*0101/DRB1*0101/Ii, DRA1*0101/DRB1*0401/Ii and DRA1*0101/DRB1*0404/Ii molecules were expressed in SC-2 cells; made in house; host or cells: SC-2 cells

[2] = system: PBMC from CMV seropositive donors; type: cell-based, human
[3] = system: PBMC (CD4 and CD8 positive T-cell compartments); experiment: Intracellular IFN-γ staining combined with surface staining for CD4, CD8, CD69 (FACS); type: cell-based, human; settings: donor 10788, peptide 80 μg/ml (FIG. 11)
Procedure: To distinguish between CD8-positive CTL mediated or CD4-positive HTL mediated reactivity, intracellular cytokine staining combined with staining for surface markers was performed: after thawing, PBMNC were kept overnight (37° C., 5% CO2) in RPMI1640 with 10% human serum type AB (BioWhittaker). Next day aliquots of 2 million PBMNC were incubated with peptide (80 μg/ml) or Concanavalin A (SIGMA). After 1 h, 10 μg/ml brefeldin A (SIGMA) were added and incubation was continued for 5 hours. Surface staining for CD4 (phycoerythrin), CD8 (cychrome), CD69 (allophycocyanine) was done with antibodies labelled as indicated (Pharmingen, San Diego, Calif., USA). After fixation with 1% para-formaldehyde in PBS, cells were permeabilized by incubating for 15 min in 0.5% BSA/0.1% Na-azide/0.1% saponin in PBS. Intracellular cytokines were stained with anti-IFN-γ (FITC) antibody 4S.B3 (Pharmingen). Samples (100,000 events in the lymphocyte gate) were read on a FACScalibur (Becton Dickinson).
FIG. 11: Confirmation of simultaneous CD4+ and CD8+ T-cell responses against CMVpp65 15mers 469, 470 by intracellular IFN-γ staining. PBMC from 2 donors (10687, 10788) were stimulated with either ConA as positive control (1st column), 15mers containing both putative class I and class II epitopes (columns 2 and 3) or medium as negative control (right column). Cells were stained for intracellular IFN-γ (x-axis) or surface the T-cell differentiation markers CD4 or CD8 (y-axis). Percentage in upper-right quadrant is indicated, numbers significant over background are shown boldface.

[4] = biological target: T1, soluble DRB1*0404 molecules; experiment: Peptide binding assay, SDS-stability assay; design: key: −: no binding; +/−: weak binding; +: intermediate binding; ++: strong binding; settings: individual pp65 15mer
[5] = biological target: T2, soluble DRB1*0401 molecules (DR4) (Homo sapiens, UniProt P01903+P01911, A100K/A169T/F76Y/I96L/K127E/L162R/M171V/N62H/P40V/Q125Y/R42H/S133A/S149N/S66Y/V115G/V209L/W38E); type: binding; design: key: +++: high binding affinity; ++: moderate binding affinity; +: low binding affinity; −: no binding
T2 construct: Soluble HLA class I A*0201 and HLA class II DRA1*0101/DRB1*0101/Ii, DRA1*0101/DRB1*0401/Ii and DRA1*0101/DRB1*0404/Ii molecules were expressed in SC-2 cells; made in house; host or cells: SC-2 cells

[6] = biological target: T1, soluble DRB1*0404 molecules; experiment: Peptide binding assay, SDS-stability assay; design: key: +++: high binding affinity; ++: moderate binding affinity; +: low binding affinity; −: no binding; settings: individual pp65 15mer
[7] = system: DRB1*0401, DRB1*0101, DRB1*0404, DRB1*0701 and DRB1*1101; experiment: Binding to soluble HLA molecules of different allels (promiscuity); design: species or system human
Procedure: In peptide binding reactions HLA molecules were used in a concentration of 0.5 μM, and each single peptide was added in 10-fold molar excess (5 μM) if not mentioned differently. […] The reaction was performed in PBS buffer (pH 7.4) at room temperature for 48 hours in the presence of a protease inhibitor cocktail (Roche) and 0.1% octyl-b-D-glucopyranoside (Sigma).
Peptide binding was evaluated in an SDS-stability assay (Gorga et al., 1987): trimeric HLA class II ab-peptide complexes are resistant to SDS and consequently appear as ˜60 kDa band in SDS-PAGE Western blot analysis. Individual HLA class II α and β chains not stabilized by a peptide binding with intermediate to high affinity migrate as ˜35 kDa and ˜30 kDa bands, respectively.
The binding affinities to DRB1*0701 and DRB1*1101 were tested by a peptide-competition assay (Reay et al., 1992). Briefly, binding of the biotinylated CLIP peptide (reference peptide) has been used for monitoring of HLA:peptide complex formation. […] In the case of lower affinity peptides they should be added in excess to the reference peptide to compete for occupancy of HLA binding grove. […] Alternatively, comparing of the amount of reference peptide bound to HLA molecules in the presence or absence of competitor peptide one can determine the binding activity of the peptide of interest.
In the present peptide-competition assay conditions of peptide binding were similar to described above. Soluble HLA molecules were used in the concentration of 0.5 μM and biotinylated CLIP was added to all samples in the final concentration of 2 μM. Competitor peptides were added in three different concentrations: 0.25, 5 and 100 μM. Binding reaction was performed in PBS buffer (pH 7.4) for 18 hours at 37° C. […] Briefly, MaxiSorb 96-well plates (Nunc, Denmark) were coated with mouse anti-αβ antibody L243 (purified from ATCC HB-55) by overnight incubation with 50 μl of 10 μg/ml dilution in PBS at 4° C. Non-specific binding to the plastic was blocked by incubation with T-PBS containing 3% of BSA for 2 hours at 37° C. and binding reactions were then “captured” for 2 hours at room temperature. […] The optical density at 405 nm was measured on a microplate reader SUNRISE (Tecan).
Some of the identified DRB1*0401 binding peptides, as well as others chosen by prediction algorithms were also tested for binding to soluble HLA molecules of different allels: DRB1*0101, DRB1*0404, DRB1*0701 and DRB1*1101 (Table 3).

[8] = biological target: T3, soluble DRB1*0101 molecules (Homo sapiens, UniProt P01903+P01911, A100R/D57E/F55L/F60I/F76Y/I96L/L162R/M171V/P40L/Q125E/R42F/V115G/Y59C); experiment: Peptide binding assay, SDS-stability assay; design: key: −: no binding; +/−: weak binding; +: intermediate binding; ++: strong binding; settings: individual pp65 15mer
T3 construct: Soluble HLA class I A*0201 and HLA class II DRA1*0101/DRB1*0101/Ii, DRA1*0101/DRB1*0401/Ii and DRA1*0101/DRB1*0404/Ii molecules were expressed in SC-2 cells; made in house; host or cells: SC-2 cells

[9] = biological target: T2, soluble DRB1*0401 molecules (DR4); type: binding; design: key to Binding to DRB1 *0401: −: no binding/T cell response; +/−: weak binding/T cell response; +: intermediate binding/T cell response; ++: strong binding/T cell response; settings: soluble DRB1*0401 molecules
[10] = system: HLA-DRB1*0401-transgenic mice splenocytes; type: in vivo, mouse; design: key to DRB1*0401 mice total SC (T cell response) / DRB1*0401 mice CD4+ (T cell response): −: no binding/T cell response; +/−: weak binding/T cell response; +: intermediate binding/T cell response; ++: strong binding/T cell response; settings: IFN-gamma ELISpot, ex vivo re-stimulation; for DRB1*0401 mice CD4+ (T cell response): enriched CD4+ fraction of splenocytes of HLA-DR4 transgenic mice vaccinated with the longer peptide; for DRB1*0401 mice total SC (T cell response): total splenocytes of HLA-DR4 transgenic mice vaccinated with the longer peptide
[11] = biological target: T2, soluble DRB1*0401 molecules (DR4); type: binding; design: key: −: no binding; +/−: weak binding; +: intermediate binding; ++: strong binding; settings: individual pp65 15mer, SDS-stability assay
[12] = biological target: T3, soluble DRB1*0101 molecules; experiment: Peptide binding assay, SDS-stability assay; design: key: +++: high binding affinity; ++: moderate binding affinity; +: low binding affinity; −: no binding; settings: individual pp65 15mer
[13] = biological target: T1, soluble DRB1*0404 molecules; experiment: Peptide binding assay, SDS-stability assay; design: key: −: no binding/T cell response; +/−: weak binding/T cell response; +: intermediate binding/T cell response; ++: strong binding/T cell response; settings: soluble DRB1*0404 molecules
[14] = biological target: T3, soluble DRB1*0101 molecules; experiment: Peptide binding assay, SDS-stability assay; design: key: −: no binding/T cell response; +/−: weak binding/T cell response; +: intermediate binding/T cell response; ++: strong binding/T cell response; settings: soluble DRB1*0101 molecules
[15] = individual pp65 15mer, SDS-stability assay

Sequence	Induction of IFN-gamma secretion in T cells / PBMC from CMV seropositive donors [2]	Binding to DRB1*0404 [4]	Binding to DRB1*0401 [5, 15]	Binding to DRB1*0404 [6]	Binding to DRB1*0101 [8]	Binding to DRB1 *0401 [9]	DRB1*0401 mice CD4+ (T cell response) [10]	DRB1*0401 mice total SC (T cell response) [10]	further results
DEDSDNEIHNPAVFT [Peptide 469]	induce IFN-gamma secretion; also recorded: can induce functional, IFN-gamma secreting T cells in humans; also recorded: induce INF-gamma production	+/−	−						Binding to DRB1*0404 (in words) [1]: found to bind to DRB1*0404; also recorded: weakly binding to DRB1*0404; Intracellular IFN-γ in CD4 and CD8 positive T-cell compartments [3]: significant IFN-γ secretion in both the CD8 and CD4 positive T-cell compartments
GGAIAGASTSAGRKR [Peptide 423]	can induce functional, IFN-gamma secreting T cells in humans		−	−					
LVPMVATVQGQNLKY [Peptide 496]		+	−		+				Affinity for several HLA molecules (promiscuity) [7]: affinity for at least two HLA molecules
LVSQYTPDSTPCHRG [Peptide 57]	induce INF-gamma production			−		++	+	++	T-cell responses, IFN-γ ELIspot ([2]; donor 10788 (FIG. 10)): strong T-cell responses; Binding to DRB1*0401 [11]: ++; Binding to DRB1*0101 [12]: −; Binding to DRB1*0404 [13]: −; Binding to DRB1*0101 [14]: −
MSIYVYALPLKMLNI [Peptide 109]					+				Binding to DRB1*0401 [5]: −
WKEPDVYYTSAFVFP [Peptide 175]			−		+	−	+	+	
